According to patent US10941182 (Amgen, dated 2021):
Starred links: 1 amine or outer side, 2 acyl side, 3 side chain; linkers in the order of their positions; H or OH if unused. Non-standard residues stand in square brackets, D forms with d. Primed or numbered codes have the meaning given here. *: point of attachment. AC4Abu = α-carboxy-4-aminobutyric acid, O=C(C(CCN[*:1])C(=O)[*:3])[*:2]; Oic = O=C(O)[C@@H]1C[C@@H]2CCCC[C@@H]2N1; Phe(4-Cl) = N[C@@H](Cc1ccc(Cl)cc1)C(=O)O; dPhe(4-Cl) = N[C@H](Cc1ccc(Cl)cc1)C(=O)O; γGlu = O=C(O)[C@H](CCC(=O)[*:2])N[*:1]; NMeR = CN[C@@H](CCCNC(=N)N)C(=O)O; Palmitoyl = CCCCCCCCCCCCCCCC(=O)*; β3hF = N[C@H](CC(=O)O)Cc1ccccc1; Cha = N[C@@H](CC1CCCCC1)C(=O)O; β3hP = O=C(O)C[C@@H]1CCCN1; Ac6c = NC1(C(=O)O)CCCCC1; Nle = CCCC[C@H](N)C(=O)O; Ac5c = NC1(C(=O)O)CCCC1; Pip′ = not defined here; AEEA = NCCOCCOCC(=O)O; Aib = CC(C)(N)C(=O)O; Inp = O=C(O)C1CCNCC1; Nip = nipecotic acid

Key:
[1] = target: T1, rat APJ receptor (rat, UniProt Q9JHG3 1-377); assay: cell-based or functional assay
T1 sequence (looked up): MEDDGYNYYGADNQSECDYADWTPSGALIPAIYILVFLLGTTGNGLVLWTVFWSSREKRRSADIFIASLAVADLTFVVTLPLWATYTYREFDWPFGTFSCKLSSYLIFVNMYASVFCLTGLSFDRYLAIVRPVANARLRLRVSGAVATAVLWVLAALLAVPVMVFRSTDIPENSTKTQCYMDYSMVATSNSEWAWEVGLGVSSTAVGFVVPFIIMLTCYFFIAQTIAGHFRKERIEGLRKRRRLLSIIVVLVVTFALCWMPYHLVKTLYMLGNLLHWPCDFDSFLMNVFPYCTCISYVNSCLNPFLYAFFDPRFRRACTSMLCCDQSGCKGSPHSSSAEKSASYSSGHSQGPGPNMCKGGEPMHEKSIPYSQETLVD

[2] = target: T2, human APJ receptor (human, UniProt P35414 1-380); assay: cell-based or functional assay
T2 sequence (looked up): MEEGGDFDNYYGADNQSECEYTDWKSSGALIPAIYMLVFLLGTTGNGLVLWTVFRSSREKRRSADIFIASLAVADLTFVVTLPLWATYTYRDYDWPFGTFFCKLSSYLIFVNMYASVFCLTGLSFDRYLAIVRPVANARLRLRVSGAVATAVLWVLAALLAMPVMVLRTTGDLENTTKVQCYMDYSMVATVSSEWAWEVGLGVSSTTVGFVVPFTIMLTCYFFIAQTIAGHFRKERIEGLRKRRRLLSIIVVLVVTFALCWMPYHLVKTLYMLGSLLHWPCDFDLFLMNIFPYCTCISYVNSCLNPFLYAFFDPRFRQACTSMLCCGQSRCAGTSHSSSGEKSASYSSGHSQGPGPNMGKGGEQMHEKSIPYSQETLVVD

B1: SEQ ID NO: 578 (peptide)
peptide: Palmitoyl-[AC4Abu][AEEA][AEEA][dQ]RP[NMeR][Cha]SHKG[Oic][Nle][β3hF]-OH
SMILES: CCCCCCCCCCCCCCCC(=O)NCCC(C(=O)O)C(=O)NCCOCCOCC(=O)NCCOCCOCC(=O)N[C@H](CCC(N)=O)C(=O)N[C@@H](CCCNC(=N)N)C(=O)N1CCC[C@H]1C(=O)N(C)[C@@H](CCCNC(=N)N)C(=O)N[C@@H](CC1CCCCC1)C(=O)N[C@@H](CO)C(=O)N[C@@H](Cc1c[nH]cn1)C(=O)N[C@@H](CCCCN)C(=O)NCC(=O)N1[C@H](C(=O)N[C@@H](CCCC)C(=O)N[C@H](CC(=O)O)Cc2ccccc2)C[C@@H]2CCCC[C@@H]21
- EC50 Rat APJ Receptor [1]: 4.9 nM
- EC50 Human APJ Receptor [2]: 1.8 nM

B2: SEQ ID NO: 580 (peptide)
peptide: Palmitoyl-[AC4Abu][AEEA][AEEA][dQ]RP[NMeR][Cha]SHKG[Oic][Aib][Phe(4-Cl)]-OH
SMILES: CCCCCCCCCCCCCCCC(=O)NCCC(C(=O)O)C(=O)NCCOCCOCC(=O)NCCOCCOCC(=O)N[C@H](CCC(N)=O)C(=O)N[C@@H](CCCNC(=N)N)C(=O)N1CCC[C@H]1C(=O)N(C)[C@@H](CCCNC(=N)N)C(=O)N[C@@H](CC1CCCCC1)C(=O)N[C@@H](CO)C(=O)N[C@@H](Cc1c[nH]cn1)C(=O)N[C@@H](CCCCN)C(=O)NCC(=O)N1[C@H](C(=O)NC(C)(C)C(=O)N[C@@H](Cc2ccc(Cl)cc2)C(=O)O)C[C@@H]2CCCC[C@@H]21
- EC50 Rat APJ Receptor [1]: 0.736 nM
- EC50 Human APJ Receptor [2]: 0.462 nM

B3: SEQ ID NO: 585 (peptide)
peptide: Palmitoyl-[AC4Abu][AEEA][AEEA][dQ]RP[NMeR][Cha]SHKG[Oic][Nle][Ac5c][Phe(4-Cl)]-OH
SMILES: CCCCCCCCCCCCCCCC(=O)NCCC(C(=O)O)C(=O)NCCOCCOCC(=O)NCCOCCOCC(=O)N[C@H](CCC(N)=O)C(=O)N[C@@H](CCCNC(=N)N)C(=O)N1CCC[C@H]1C(=O)N(C)[C@@H](CCCNC(=N)N)C(=O)N[C@@H](CC1CCCCC1)C(=O)N[C@@H](CO)C(=O)N[C@@H](Cc1c[nH]cn1)C(=O)N[C@@H](CCCCN)C(=O)NCC(=O)N1[C@H](C(=O)N[C@@H](CCCC)C(=O)NC2(C(=O)N[C@@H](Cc3ccc(Cl)cc3)C(=O)O)CCCC2)C[C@@H]2CCCC[C@@H]21
- EC50 Rat APJ Receptor [1]: 22.3 nM
- EC50 Human APJ Receptor [2]: 6.73 nM

B4: SEQ ID NO: 584 (peptide)
peptide: Palmitoyl-[AC4Abu][AEEA][AEEA][dQ]RP[NMeR][Cha]SHKG[Oic][Nle][Ac6c][Phe(4-Cl)]-OH
SMILES: CCCCCCCCCCCCCCCC(=O)NCCC(C(=O)O)C(=O)NCCOCCOCC(=O)NCCOCCOCC(=O)N[C@H](CCC(N)=O)C(=O)N[C@@H](CCCNC(=N)N)C(=O)N1CCC[C@H]1C(=O)N(C)[C@@H](CCCNC(=N)N)C(=O)N[C@@H](CC1CCCCC1)C(=O)N[C@@H](CO)C(=O)N[C@@H](Cc1c[nH]cn1)C(=O)N[C@@H](CCCCN)C(=O)NCC(=O)N1[C@H](C(=O)N[C@@H](CCCC)C(=O)NC2(C(=O)N[C@@H](Cc3ccc(Cl)cc3)C(=O)O)CCCCC2)C[C@@H]2CCCC[C@@H]21
- EC50 Rat APJ Receptor [1]: 52.2 nM
- EC50 Human APJ Receptor [2]: 22.9 nM

Binder: Palmitoyl-[γGlu][AEEA][AEEA][dQ]RP[NMeR][Cha]SHKG[Oic][Nle][Pip′][dPhe(4-Cl)]-OH [SEQ ID NO: 601]
- EC50 Rat APJ Receptor [1]: 3.25 nM
- EC50 Human APJ Receptor [2]: 3.44 nM

B5: SEQ ID NO: 577 (peptide)
peptide: Palmitoyl-[AC4Abu][AEEA][AEEA][dQ]RP[NMeR][Cha]SHKG[Oic][Nle][Aib][β3hF]-OH
SMILES: CCCCCCCCCCCCCCCC(=O)NCCC(C(=O)O)C(=O)NCCOCCOCC(=O)NCCOCCOCC(=O)N[C@H](CCC(N)=O)C(=O)N[C@@H](CCCNC(=N)N)C(=O)N1CCC[C@H]1C(=O)N(C)[C@@H](CCCNC(=N)N)C(=O)N[C@@H](CC1CCCCC1)C(=O)N[C@@H](CO)C(=O)N[C@@H](Cc1c[nH]cn1)C(=O)N[C@@H](CCCCN)C(=O)NCC(=O)N1[C@H](C(=O)N[C@@H](CCCC)C(=O)NC(C)(C)C(=O)N[C@H](CC(=O)O)Cc2ccccc2)C[C@@H]2CCCC[C@@H]21
- EC50 Rat APJ Receptor [1]: 4.42 nM
- EC50 Human APJ Receptor [2]: 1.78 nM

B6: SEQ ID NO: 600 (peptide)
peptide: Palmitoyl-[γGlu][AEEA][AEEA][dQ]RP[NMeR][Cha]SHKG[Oic][Nle][β3hP][dPhe(4-Cl)]-OH
SMILES: CCCCCCCCCCCCCCCC(=O)N[C@@H](CCC(=O)NCCOCCOCC(=O)NCCOCCOCC(=O)N[C@H](CCC(N)=O)C(=O)N[C@@H](CCCNC(=N)N)C(=O)N1CCC[C@H]1C(=O)N(C)[C@@H](CCCNC(=N)N)C(=O)N[C@@H](CC1CCCCC1)C(=O)N[C@@H](CO)C(=O)N[C@@H](Cc1c[nH]cn1)C(=O)N[C@@H](CCCCN)C(=O)NCC(=O)N1[C@H](C(=O)N[C@@H](CCCC)C(=O)N2CCC[C@H]2CC(=O)N[C@H](Cc2ccc(Cl)cc2)C(=O)O)C[C@@H]2CCCC[C@@H]21)C(=O)O
- EC50 Rat APJ Receptor [1]: 4.46 nM
- EC50 Human APJ Receptor [2]: 1.66 nM

B7: SEQ ID NO: 587 (peptide)
peptide: Palmitoyl-[AC4Abu][AEEA][AEEA][dQ]RP[NMeR][Cha]SHKG[Oic][Nle][Inp][Phe(4-Cl)]-OH
SMILES: CCCCCCCCCCCCCCCC(=O)NCCC(C(=O)O)C(=O)NCCOCCOCC(=O)NCCOCCOCC(=O)N[C@H](CCC(N)=O)C(=O)N[C@@H](CCCNC(=N)N)C(=O)N1CCC[C@H]1C(=O)N(C)[C@@H](CCCNC(=N)N)C(=O)N[C@@H](CC1CCCCC1)C(=O)N[C@@H](CO)C(=O)N[C@@H](Cc1c[nH]cn1)C(=O)N[C@@H](CCCCN)C(=O)NCC(=O)N1[C@H](C(=O)N[C@@H](CCCC)C(=O)N2CCC(C(=O)N[C@@H](Cc3ccc(Cl)cc3)C(=O)O)CC2)C[C@@H]2CCCC[C@@H]21
- EC50 Rat APJ Receptor [1]: 3.58 nM
- EC50 Human APJ Receptor [2]: 1.29 nM

B8: SEQ ID NO: 603 (peptide)
peptide: Palmitoyl-[γGlu][AEEA][AEEA][dQ]RP[NMeR][Cha]SHKG[Oic][Nle][Inp][dPhe(4-Cl)]-OH
SMILES: CCCCCCCCCCCCCCCC(=O)N[C@@H](CCC(=O)NCCOCCOCC(=O)NCCOCCOCC(=O)N[C@H](CCC(N)=O)C(=O)N[C@@H](CCCNC(=N)N)C(=O)N1CCC[C@H]1C(=O)N(C)[C@@H](CCCNC(=N)N)C(=O)N[C@@H](CC1CCCCC1)C(=O)N[C@@H](CO)C(=O)N[C@@H](Cc1c[nH]cn1)C(=O)N[C@@H](CCCCN)C(=O)NCC(=O)N1[C@H](C(=O)N[C@@H](CCCC)C(=O)N2CCC(C(=O)N[C@H](Cc3ccc(Cl)cc3)C(=O)O)CC2)C[C@@H]2CCCC[C@@H]21)C(=O)O
- EC50 Rat APJ Receptor [1]: 32.3 nM
- EC50 Human APJ Receptor [2]: 2.96 nM

Binder: Palmitoyl-[AC4Abu][AEEA][AEEA][dQ]RP[NMeR][Cha]SHKG[Oic][Nle][Nip][Phe(4-Cl)]-OH [SEQ ID NO: 586]
- EC50 Rat APJ Receptor [1]: 23 nM
- EC50 Human APJ Receptor [2]: 7.96 nM

Binder: Palmitoyl-[γGlu][AEEA][AEEA][dQ]RP[NMeR][Cha]SHKG[Oic][Nle][Nip][dPhe(4-Cl)]-OH [SEQ ID NO: 602]
- EC50 Rat APJ Receptor [1]: 25.6 nM
- EC50 Human APJ Receptor [2]: 5.48 nM
